The record followed here is patent US20130143948A1, “MST1 AS A PROGNOSTIC BIOMARKER AND THERAPEUTIC TARGET IN HUMAN CANCER” (CEDARS-SINAI MEDICAL CENTER, priority 2010, published 2013).

For one experiment, the system named is LNCaP/Vector cells. In words: BrdU incorporation cell proliferation assay, LNCaP/Vector. The class given is cell-based. The note with it: Dox 4 μg/ml, 24 hr. The method, then: For in vitro kinase assay, the recombinant, pre-activated MST1 protein kinase was incubated with purified GST-AR DBD/HR fusion protein and 10 μCi ^32P-γ-ATP or 100 μM unlabeled-ATP. The reaction mixture was resolved on SDS-PAGE and autoradiographed. Cell-Death ELISA and BrdU incorporation assays were performed to assess cell death and cell proliferation, respectively, according to the manufacturer's instructions (Roche Molecular Diagnostics).
(Dividing cells build labelled thymidine or BrdU into new DNA.)

Experiment [1] deals with C4-2/HA-MST1 tumor xenografts. In words: Subcutaneous prostate cancer xenograft in athymic nude mice. The class given is in vivo. The procedure:
C4-2/Vector or C4-2/HA-MST1 cells mixed with Matrigel (1-to-1 ratio) were inoculated subcutaneously in athymic nude mice (CD-1 nu/nu; Charles River Laboratories, Wilmington, Mass.). 1×10^6 cells/100 μl were used per injection per site (right and left flanks). Mice were treated with Dox (0.5 mg/ml) in drinking water to induce MST1 expression for 12 weeks. Institutional Animal Care and Use Committee (IACUC) policies and guidelines were strictly applied. Tumor volumes were assessed by caliper according to procedures described previously (20). Mice were sacrificed and evaluated for tumor growth anatomically and tumor tissues extracted from mice were fixed in 10% formaldehyde for the construction of histological sections or “snap” frozen at −80° C. The expression of MST1 was verified in histological sections by immunohistochemistry using anti-HA antibody.

Where [2] appears, read: C4-2/HA-MST1 vs C4-2/Vector, Dox in drinking water, 12 weeks.

Regarding `C[C@H]1c2cccc(O)c2C(=O)C2=C(O)[C@]3(O)C(=O)C(C(N)=O)=C(O)[C@@H](N(C)C)[C@@H]3[C@@H](O)[C@@H]21` [Dox, doxycycline], the “effect on cell growth” value with LNCaP/Vector cells is “no effect”.

B1: MST1: serine-threonine kinase MST1 (mammalian sterile STE20-like kinase 1), enforced Dox-inducible HA-tagged expression in tumor cells (protein, UniProt Q13043 1-487, looked up)
Serine/threonine-protein …: METVQLRNPPRRQLKKLDEDSLTKQPEEVFDVLEKLGEGSYGSVYKAIHKETGQIVAIKQVPVESDLQEIIKEISIMQQCDSPHVVKYYGSYFKNTDLWIVMEYCGAGSVSDIIRLRNKTLTEDEIATILQSTLKGLEYLHFMRKIHRDIKAGNILLNTEGHAKLADFGVAGQLTDTMAKRNTVIGTPFWMAPEVIQEIGYNCVADIWSLGITAIEMAEGKPPYADIHPMRAIFMIPTNPPPTFRKPELWSDNFTDFVKQCLVKSPEQRATATQLLQHPFVRSAKGVSILRDLINEAMDVKLKRQESQQREVDQDDEENSEEDEMDSGTMVRAVGDEMGTVRVASTMTDGANTMIEHDDTLPSQLGTMVINAEDEEEEGTMKRRDETMQPAKPSFLEYFEQKEKENQINSFGKSVPGPLKNSSDWKIPQDGDYEFLKSWTVEDLQKRLLALDPMMEQEIEEIRQKYQSKRQPILDAIEAKKRRQQNF
modifications: HA tag
notes: serine-threonine kinase MST1 (mammalian sterile STE20-like kinase 1), enforced Dox-inducible HA-tagged expression in tumor cells
Regarding B1, the “mice that developed tumors” value in experiment [1] (12 weeks after subcutaneous inoculation, 10 mice per group) is on record as 2 out of 10. In addition, in experiment [1] (setting [2]), the “suppression of tumor growth” value was 35 fold and the “suppression of tumorigenic rates” value is listed as 4 fold.
